This is an account of results in publication PMC10530651, “Mechanisms of Regulation of the CHRDL1 Gene by the TWIST2 and ADD1/SREBP1c Transcription Factors”.

Substitutions are numbered along the chain they refer to.

In data set [1] the target is T1, TWIST1 (Homo sapiens, UniProt Q15672 1-202). Put plainly: competition; vs labeled probe #5; EMSA: 20 mM HEPES pH 7.9, 60 mM KCl, 1 mM MgCl2, 0.5 mM DTT, 10% glycerol, 10 µL with 1-3 µL TnT lysate; competitor at least 50x molar excess; 6% native gel, 0.5X TBE, 4 °C; binding temperature not stated. Particulars: protein: ivt; tags: Myc; chain copies: 2; blunt.
In data set [2] the target is T2, TWIST2 (Homo sapiens, UniProt Q8WVJ9 1-160).
T2 sequence: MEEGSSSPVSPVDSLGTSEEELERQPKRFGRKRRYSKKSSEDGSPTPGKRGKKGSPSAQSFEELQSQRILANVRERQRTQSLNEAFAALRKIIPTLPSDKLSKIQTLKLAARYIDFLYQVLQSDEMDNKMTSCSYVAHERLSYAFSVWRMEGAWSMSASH
The data set is described as above. The following applies: protein: ivt; tags: N-terminal Myc; chain copies: 2; blunt.

The target in data set [3] is T3, ADD1/SREBP1c (rat, UniProt P56720-1 1-403).
T3 sequence: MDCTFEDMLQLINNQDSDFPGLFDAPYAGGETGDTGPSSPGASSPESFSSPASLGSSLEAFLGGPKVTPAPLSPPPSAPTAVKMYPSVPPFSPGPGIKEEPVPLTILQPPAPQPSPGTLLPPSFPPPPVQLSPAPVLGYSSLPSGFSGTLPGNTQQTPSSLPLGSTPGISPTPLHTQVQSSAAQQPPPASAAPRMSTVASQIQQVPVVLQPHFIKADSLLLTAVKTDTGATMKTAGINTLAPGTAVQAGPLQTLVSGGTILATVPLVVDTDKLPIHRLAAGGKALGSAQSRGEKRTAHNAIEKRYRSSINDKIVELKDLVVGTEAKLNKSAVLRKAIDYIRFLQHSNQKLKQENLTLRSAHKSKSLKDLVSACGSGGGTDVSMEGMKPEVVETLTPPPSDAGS
Put plainly: EMSA; EMSA: 20 mM HEPES pH 7.9, 60 mM KCl, 1 mM MgCl2, 0.5 mM DTT, 10% glycerol, 10 µL with 1-3 µL TnT lysate; competitor at least 50x molar excess; 6% native gel, 0.5X TBE, 4 °C; binding temperature not stated. Particulars: protein: ivt; tags: C-terminal Myc/His; chain copies: 2; label: 32P as probe; blunt. Background: A gel shift assay detects complexes by their altered migration in electrophoresis.

In data set [4] the target is T2, TWIST2. The description is as above. Particulars: protein: ivt; tags: N-terminal Myc; chain copies: 2; label: 32P as probe; blunt.
Data set [5] has as its target T3, ADD1/SREBP1c. Put plainly: competition; vs labeled CH2700EA; EMSA: 20 mM HEPES pH 7.9, 60 mM KCl, 1 mM MgCl2, 0.5 mM DTT, 10% glycerol, 10 µL with 1-3 µL TnT lysate; competitor at least 50x molar excess; 6% native gel, 0.5X TBE, 4 °C; binding temperature not stated. The following applies: protein: ivt; tags: C-terminal Myc/His; chain copies: 2; blunt.
Data set [6] addresses T2, TWIST2. Described as above. The following applies: protein: ivt; tags: N-terminal Myc; chain copies: 2; blunt.
For data set [7], the target named is T3, ADD1/SREBP1c. Put plainly: EMSA; competition; EMSA: 20 mM HEPES pH 7.9, 60 mM KCl, 1 mM MgCl2, 0.5 mM DTT, 10% glycerol, 10 µL with 1-3 µL TnT lysate; competitor at least 50x molar excess; 6% native gel, 0.5X TBE, 4 °C; binding temperature not stated. The following applies: protein: ivt; tags: C-terminal Myc/His; chain copies: 2; label: 32P as probe; blunt.

Data set [8] deals with T2, TWIST2. The data set is described as above. Particulars: protein: ivt; tags: N-terminal Myc; chain copies: 2; label: 32P as probe; blunt.
For data set [9], the target named is T1, TWIST1. Put plainly: EMSA; EMSA: 20 mM HEPES pH 7.9, 60 mM KCl, 1 mM MgCl2, 0.5 mM DTT, 10% glycerol, 10 µL with 1-3 µL TnT lysate; competitor at least 50x molar excess; 6% native gel, 0.5X TBE, 4 °C; binding temperature not stated. The following applies: protein: ivt; tags: Myc; chain copies: 2; label: 32P as probe; blunt.

B1: SP1 oligo (dsDNA)
DNA 1: ATTCGATCGGGGCGGGGCGAGC
DNA 2: GCTCGCCCCGCCCCGATCGAAT
Regarding B1, the binding result with TWIST1 [1] and in the data set with TWIST2 [2] was “no binding” throughout.

B2: CH2700EA (dsDNA)
DNA 1: TGGTGGTGGTCACATGAATATACACATGCGATAAAATT
DNA 2: AATTTTATCGCATGTGTATATTCATGTGACCACCACCA
As to B2, the binding result in the data set with ADD1/SREBP1c [3] and with TWIST2 [4] was “binds” throughout.

B3: CH2700EMAW (dsDNA)
DNA 1: B2 DNA 1 with A12G, T15C
DNA 2: B2 DNA 2 with A24G, T27C
Take B3: the binding result with ADD1/SREBP1c [5] and in the data set with TWIST2 [6] was “binds” in each case.

B4: CH2700EWAM (dsDNA)
DNA 1: B2 DNA 1 with A24G, T27C
DNA 2: B2 DNA 2 with A12G, T15C
For B4, in the data set with ADD1/SREBP1c [5], the binding result is listed as “binds”.

B5: CH2600TWI (dsDNA)
DNA 1: TATATACACAGGCAAATGAGTGCATATAAA
DNA 2: TTTATATGCACTCATTTGCCTGTGTATATA
As for B5, the binding result with ADD1/SREBP1c [7], in the data set with TWIST2 [8] and with TWIST1 [9] was “no binding” in each case.
